This note sets out measurements from article PMC4780118, “Mechanisms involved in xyloglucan catabolism by the cellulosome-producing bacterium Ruminiclostridium cellulolyticum” (Scientific Reports, 2016).

For series [1], the target named is T1, SBP2458 (Ruminiclostridium cellulolyticum, UniProt B8I622).
T1 construct: gene Ccel_2458
The experiment in a line: isothermal titration calorimetry. It is filed as binding. The note with it: 150 mM NaCl, 25 mM HEPES pH 7.0, 20 °C; single-site model. For orientation: ITC needs no label: the signal is the heat of the interaction.

Substrate in series [2]: O=[N+]([O-])c1ccc(O[C@@H]2O[C@H](CO)[C@H](O)[C@H](O)[C@H]2O)cc1
The experiment in a line: purified protein. The note with it: assay as in ref. 19.

Substrate in series [3]: O=[N+]([O-])c1ccc(O[C@@H]2O[C@H](CO)[C@@H](O)[C@H](O)[C@H]2O)cc1
As to the kind of experiment: purified protein. The note with it: assay as in ref. 19.

Substrate in series [4]: O=[N+]([O-])c1ccc(O[C@H]2OC[C@@H](O)[C@H](O)[C@H]2O)cc1
As to the kind of experiment: pNP release kinetics. It counts as biochemical, Ruminiclostridium cellulolyticum. To be noted: assay as in ref. 19.

By Kd is commonly meant a measure of binding affinity in units of concentration. Usually Km stands for the concentration of substrate that gives half-maximal velocity. What is called kcat/Km is the turnover number divided by the Michaelis constant.

T1 sequence (B8I622 entry or part of it): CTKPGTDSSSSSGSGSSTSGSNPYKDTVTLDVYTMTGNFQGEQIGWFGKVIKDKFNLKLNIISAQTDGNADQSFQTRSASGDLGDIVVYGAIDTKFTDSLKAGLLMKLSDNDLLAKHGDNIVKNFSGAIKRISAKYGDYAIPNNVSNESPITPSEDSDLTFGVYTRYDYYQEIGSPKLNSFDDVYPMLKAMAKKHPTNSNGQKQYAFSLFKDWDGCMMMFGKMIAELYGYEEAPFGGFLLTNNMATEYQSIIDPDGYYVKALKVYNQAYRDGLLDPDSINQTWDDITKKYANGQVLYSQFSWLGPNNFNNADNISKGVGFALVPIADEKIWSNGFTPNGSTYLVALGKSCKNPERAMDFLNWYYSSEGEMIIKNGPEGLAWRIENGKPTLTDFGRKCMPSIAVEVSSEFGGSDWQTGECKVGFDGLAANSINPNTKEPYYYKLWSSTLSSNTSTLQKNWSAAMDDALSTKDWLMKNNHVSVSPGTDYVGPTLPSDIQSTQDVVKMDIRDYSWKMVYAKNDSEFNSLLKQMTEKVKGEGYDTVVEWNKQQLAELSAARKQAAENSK

`OC[C@H]1OC(O)[C@H](O)[C@@H](O)[C@@H]1O[C@@H]1O[C@H](CO[C@H]2OC[C@@H](O)[C@H](O)[C@H]2O)[C@@H](O[C@@H]2O[C@H](CO[C@H]3OC[C@@H](O)[C@H](O)[C@H]3O)[C@@H](O[C@@H]3O[C@H](CO[C@H]4OC[C@@H](O)[C@H](O)[C@H]4O)[C@@H](O)[C@H](O)[C@H]3O)[C@H](O)[C@H]2O)[C@H](O)[C@H]1O` (stereo partly shown) [XXXG] displayed a Kd in series [1] of 3.65 ± 1.1 nM.

B1: Gal42A (Ruminiclostridium cellulolyticum H10) (protein)
chain: MDKYMPIGMNFPHILHGGDYNPDQWLKAPKILDEDFRLMKLAHCNVMTIGIFSWMALEPEEGKFDFSWLDEIMDKLSKNEMTAILATPSGAKPSWMSQKYPEILRTQADRLKDFHGGRHNHCLTSPIYRKKVSQINRLLAERYARHPALILWHISNEYSGECHCPLCQEAFRSFLMKKYEGDLERLNHEWWTGFWAHRYTDWSQIESPSPRGEHETHGLILDWKRFVSHQTIDFLKNEIKPLRELTPEISVTTNLMGTFPGLEYRELSKEIDVVSWDNYPTWHTSEQPDWKIGIRTSFVHDINRSLKQGKPFMMMESTPSTVNWQKVNKLKRPGMHMLSSLQAVAHGSDTVQYFQWRKSRGSFEKFHGAVVDHVGHENTRVFREVAQVGQVLEKLDEVVGTTVHPKVAIIFDWENRWAMEEAQALARDRIKYEETCVAHYTAFWKRGVSVDIIGARDNLSQYKLVIAPMLYLTHPGVGERIETFVNEGGTFVATYWSGIVNENDLCHLGGFPGPLRAVTGIWSEEIDTMHPDENNSLILSDNSLGLSGTYRVQDFCDLVHAESAEVLARYGEEFYAGRPALTVNRFGKGNAYYMAARTGEDFLEDFYNALMKKLTLSRTLDVELPCGVTSQLRTDGQNRYIFLMNFNHEKQDIQLTKGLTDMFTGEIRQGMLELAPFDVKVLKAKI
For B1, in series [2], the Km is 1560 ± 300 µM, the kcat was 4,800 ± 320 μmol product per μmol enzyme × min^−1 and the kcat/Km came to 51300 M⁻¹ s⁻¹.

B2: Glu3A (Ruminiclostridium cellulolyticum H10) (protein)
chain: MQYDQIDKKIDELLSMMTLEEKAGMCHGAGLFRTAGVPRLGIPPLVFSDGPMGIRNEFADDNWNTVGGNTDFVTYLPANTALAATFNRTLAESLGEVLGCEARGRGKDVILAPGVNIIRTPLCGRNYEYFSEDPILTAELAASFIKGVQRFDVAACVKHFAANNQETERLAVSAEVDELTLRELYFPAFEASVRAGVLTVMTAYNRLNGTFCSHSRQLITEILREEWGFNGVVVSDWGAVHDTESPAIAGLDIEMNVTSNFNEYFFAKPLINAIKDGKIPERMLDDKVRRILRLMFRLNMFSKDRKRGGFNLPQHQQAVLDAAKESFVLLKNDREVLPLNADGIKTVAVIGSNADKKHSSGGDSAAVKALYEVTPLSGIVMRLASGAKVTYYPGCPDETHYKEEFHIPSNADEKTRADIEEKARAADEDYRKIQMRLEDEAIQAAKTADAVIFIGGNGHEQESEGRDRPDMALPYEQDKLLSRVLDANPNTVVVIISGSPVNMSGWIDKAPTVMQGFFSGMHGGTALAAVLFGDENPSGHLPFTIPLKEEETGASALGEYPGGETVCYSEGLFVGYRYHDAFNIPPLFPFGYGLSYTTFSLANESFRRLPCVGTEYEIHVDITNSGNRPGAQSVQLYVEPEKKDGSPIRTLKGFEKTYLNPDETKTITFKLDERTFSEFRPHEGWVFVPGNYTIHIGTSSRELPIAIALAL
In the case of B2, in series [3], the Km was determined as 44600 ± 19000 µM, the kcat was 1,350 ± 164 μmol product per μmol enzyme × min^−1 and the kcat/Km is 500 M⁻¹ s⁻¹.

B3: Xyl31A (Ruminiclostridium cellulolyticum H10) (protein)
chain: MKFLNGYWMSKEGYSLYYPSEAYRIEKSGDVLRIFAPCNQINHRGDTLGGPALTIELSSPAEDVIRISVYHYKGVKKAGPYFELNTPGISPSISEDEDAVWFGSGQIKARIDKKTYNIDYYRGDERLTGSGWRHLAYIKHESGQTYMREQLDLDVGECVYGLGERFTPFVKNGQTVDIWNQDGGTCTEQSYKNIPFYITNRGYGVFVNDPGLVSFEICSEVVSRSQFSVEGESLDYFIIGGSDCKEVISNYTALTGRPAIPPAWSFGLWLSTSFTTNYDEKTVTSFINGMSKRRIPLSVFHFDCFWMKEFNWCDFIWDKDVFPDPKKMLSKLKEKGLHICVWINSYVSQESVLFDEGMQKGYFIHKKNGSVWQWDMWQPGMAIVDFTNPDACNWFSQKLLNLVDMGVDCFKTDFGERIPTEDVVYYDGSDPVKMHNFYTYLYNRTVFDTLKQVGKEAVVFARSATAGSQKFPVHWGGDCTADFSSMAESLRGGLSLGLCGFGFWSHDIGGFEQTATADVYKRWLAFGMLSSHSRLHGSTGYRVPWLYDEEAVDVLRFFANLKCRLMPYIYKTAIQASQQGLPSARAMFVEFPEDPACTTLDRQYMLGDSLLVAPVFSKSGLVEYYLPLGEWYNLLTGEIVTGGSYRKEKHNYMSLPLFVRPGSLLAIGDNEEETVYEYAQGVRLLLTPLADGYEASTSVYEKDGHEALNVTVNRKESDITVIAEGDGKPWSIKLCGITAKGCTGGTIEKEQDGIVFMPGNSTGSYTVRIL
notes: C-terminal His6 (pET28a); E. coli BL21(DE3)
Take B3: in series [4], the Michaelis constant (Km) was found to be 1290 ± 150 µM, the kcat is reported as 12 ± 1.2 μmol product per μmol enzyme × min^−1 and the kcat/Km is 155 M⁻¹ s⁻¹.
